According to patent publication US20250019439A1 (Adimab, published 2025):

Tests used:
ADI-26913 Fab = molecular target: T1, ADI-26913 Fab; assay: BLI; tip ADI-34134 IgG, solution anti-CD3 Fab
T1 construct: anti-CD3 Fab by papain digestion of the IgG
Description: (§1) ForteBio affinity measurements were performed generally as previously described (Estep et al., MAbs. 2013 5(2):270-8). Briefly, ForteBio affinity measurements were performed by loading antibody IgG or Fabs on-line onto AHC sensors. Sensors were equilibrated off-line in assay buffer for 30 minutes and then monitored on-line for 60 seconds for baseline establishment. For avid binding measurement, sensors with loaded antibodies were exposed to IgG or Fab solutions for 3 minutes, afterwards they were transferred to assay buffer for 3 minutes for off-rate measurement. Kinetics data were fit using a 1:1 binding model in the data analysis software provided by ForteBio to obtain equilibrium dissociation constant (KD=koff/kₒₙ) values. In each column, tip-immobilized antibodies are listed first and solution antibodies second.
(§2) In each column, tip-immobilized antibodies are listed first and solution antibodies second.

ADI-26906 Fab = molecular target: T2, ADI-26906 Fab; assay: BLI; tip ADI-34134 IgG, solution anti-CD3 Fab
T2 construct: anti-CD3 Fab by papain digestion of the IgG
Description: as §1, §2

ADI-26921 Fab = molecular target: T3, ADI-26921 Fab; assay: BLI; tip ADI-34134 IgG, solution anti-CD3 Fab
T3 construct: anti-CD3 Fab by papain digestion of the IgG
Description: as §1, §2

ADI-26954 Fab = molecular target: T4, ADI-26954 Fab; assay: BLI; tip ADI-34134 IgG, solution anti-CD3 Fab
T4 construct: anti-CD3 Fab by papain digestion of the IgG
Description: as §1, §2

ADI-26928 Fab = molecular target: T5, ADI-26928 Fab; assay: BLI; tip ADI-34134 IgG, solution anti-CD3 Fab
T5 construct: anti-CD3 Fab by papain digestion of the IgG
Description: as §1, §2

ADI-22523 Fab = molecular target: T6, ADI-22523 Fab; assay: BLI; tip ADI-34134 IgG, solution anti-CD3 Fab
T6 construct: anti-CD3 Fab by papain digestion of the IgG
Description: as §1, §2

ADI-26916 Fab = molecular target: T7, ADI-26916 Fab; assay: BLI; tip ADI-34134 IgG, solution anti-CD3 Fab
T7 construct: anti-CD3 Fab by papain digestion of the IgG
Description: as §1, §2

ADI-26921 IgG = molecular target: T8, ADI-26921 IgG; assay: BLI; tip anti-CD3 IgG, solution ADI-34134 IgG
T8 construct: anti-CD3 IgG
Description: as §1
(§3) CTL-19613 is an IgG1 antibody prepared with anti-CD3 variable domains corresponding with those of clone 12C described in United States Publication Number US 2010/0183615 (e.g., see paragraphs 469-479 and FIG. 25 thereof), which also make up the CD3 binding domain of the bispecific antibody pasotuxizumab. […] In each column, tip-immobilized antibodies are listed first and solution antibodies second.

ADI-26928 IgG = molecular target: T9, ADI-26928 IgG; assay: BLI; tip anti-CD3 IgG, solution ADI-34134 IgG
T9 construct: anti-CD3 IgG
Description: as §1, §3

ADI-22523 IgG [1] = molecular target: T10, ADI-22523 IgG; assay: BLI; tip anti-CD3 IgG, solution ADI-34134 IgG
T10 construct: anti-CD3 IgG
Description: as §1, §3

ADI-26920 IgG [2] = molecular target: T11, ADI-26920 IgG; assay: BLI; tip anti-CD3 IgG, solution ADI-34134 IgG
T11 construct: anti-CD3 IgG
Description: as §1, §3

ADI-26906 IgG [3] = molecular target: T12, ADI-26906 IgG; assay: BLI; tip anti-CD3 IgG, solution ADI-34134 IgG
T12 construct: anti-CD3 IgG
Description: as §1, §3

ADI-26913 IgG [4] = molecular target: T13, ADI-26913 IgG; assay: BLI; tip anti-CD3 IgG, solution ADI-34134 IgG
T13 construct: anti-CD3 IgG
Description: as §1, §3

ADI-26916 IgG [5] = molecular target: T14, ADI-26916 IgG; assay: BLI; tip anti-CD3 IgG, solution ADI-34134 IgG
T14 construct: anti-CD3 IgG
Description: as §1, §3

ADI-26941 IgG = molecular target: T15, ADI-26941 IgG; assay: BLI; tip anti-CD3 IgG, solution ADI-34134 IgG
T15 construct: anti-CD3 IgG
Description: as §1, §3

ADI-26927 IgG = molecular target: T16, ADI-26927 IgG; assay: BLI; tip anti-CD3 IgG, solution ADI-34134 IgG
T16 construct: anti-CD3 IgG
Description: as §1, §3

ADI-26954 IgG [6] = molecular target: T17, ADI-26954 IgG; assay: BLI; tip ADI-34145 IgG, solution anti-CD3 IgG
T17 construct: anti-CD3 IgG
Description: as §1, §2

ADI-22523 IgG [7] = molecular target: T10, ADI-22523 IgG; assay: BLI; tip ADI-34145 IgG, solution anti-CD3 IgG
Description: as §1, §2

ADI-26920 IgG [8] = molecular target: T11, ADI-26920 IgG; assay: BLI; tip ADI-34145 IgG, solution anti-CD3 IgG
Description: as §1, §2

ADI-26906 IgG [9] = molecular target: T12, ADI-26906 IgG; assay: BLI; tip ADI-34145 IgG, solution anti-CD3 IgG
Description: as §1, §2

ADI-26913 IgG [10] = molecular target: T13, ADI-26913 IgG; assay: BLI; tip ADI-34145 IgG, solution anti-CD3 IgG
Description: as §1, §2

ADI-26916 IgG [11] = molecular target: T14, ADI-26916 IgG; assay: BLI; tip ADI-34145 IgG, solution anti-CD3 IgG
Description: as §1, §2

ADI-26954 IgG [12] = molecular target: T17, ADI-26954 IgG; assay: BLI; tip anti-CD3 IgG, solution ADI-34145 IgG
Description: as §1, §3

CTL-19613 IgG = assay: BLI; tip anti-CD3 IgG, solution ADI-34145 IgG
Description: as §1, §3

ADI-22523 IgG [13] = molecular target: T10, ADI-22523 IgG; assay: BLI; tip anti-CD3 IgG, solution ADI-34145 IgG
Description: as §1, §3

ADI-26920 IgG [14] = molecular target: T11, ADI-26920 IgG; assay: BLI; tip anti-CD3 IgG, solution ADI-34145 IgG
Description: as §1, §3

ADI-26906 IgG [15] = molecular target: T12, ADI-26906 IgG; assay: BLI; tip anti-CD3 IgG, solution ADI-34145 IgG
Description: as §1, §3

ADI-26913 IgG [16] = molecular target: T13, ADI-26913 IgG; assay: BLI; tip anti-CD3 IgG, solution ADI-34145 IgG
Description: as §1, §3

ADI-26916 IgG [17] = molecular target: T14, ADI-26916 IgG; assay: BLI; tip anti-CD3 IgG, solution ADI-34145 IgG
Description: as §1, §3

CTL-19672 IgG = molecular target: T18, CTL-19672 IgG; assay: BLI; tip anti-CD3 IgG, solution ADI-34145 IgG
T18 construct: IgG1 with the anti-CD3 variable domains of clone 38E4v1
Description: as §1, §3

T10 sequence (VH, as listed by the source limits assumed, chain 1 of 2): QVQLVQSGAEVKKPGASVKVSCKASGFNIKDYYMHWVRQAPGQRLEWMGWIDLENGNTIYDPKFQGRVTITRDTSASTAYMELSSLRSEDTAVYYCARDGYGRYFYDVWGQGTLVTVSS
T10 sequence (VL, as listed by the source limits assumed, chain 2 of 2): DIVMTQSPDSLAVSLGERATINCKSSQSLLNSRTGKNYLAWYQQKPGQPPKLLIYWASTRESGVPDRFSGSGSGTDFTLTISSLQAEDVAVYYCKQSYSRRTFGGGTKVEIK
T13 sequence (VH, as listed by the source limits assumed, chain 1 of 2): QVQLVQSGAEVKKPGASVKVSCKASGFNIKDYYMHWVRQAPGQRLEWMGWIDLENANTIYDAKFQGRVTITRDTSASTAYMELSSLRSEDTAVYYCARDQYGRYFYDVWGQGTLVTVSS
T13 sequence (VL, as listed by the source limits assumed, chain 2 of 2): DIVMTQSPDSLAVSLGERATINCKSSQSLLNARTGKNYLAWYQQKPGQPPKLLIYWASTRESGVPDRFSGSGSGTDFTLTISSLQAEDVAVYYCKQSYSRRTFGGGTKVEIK
T11 sequence (VH, as listed by the source limits assumed, chain 1 of 2): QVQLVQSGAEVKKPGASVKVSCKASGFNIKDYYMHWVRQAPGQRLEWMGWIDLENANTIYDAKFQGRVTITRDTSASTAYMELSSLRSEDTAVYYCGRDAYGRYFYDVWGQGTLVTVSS
T11 sequence (VL, as listed by the source limits assumed, chain 2 of 2): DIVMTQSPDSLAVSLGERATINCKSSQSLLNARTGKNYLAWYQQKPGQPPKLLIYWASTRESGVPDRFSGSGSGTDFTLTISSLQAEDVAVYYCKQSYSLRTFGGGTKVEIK
T14 sequence (VH, as listed by the source, chain 1 of 2): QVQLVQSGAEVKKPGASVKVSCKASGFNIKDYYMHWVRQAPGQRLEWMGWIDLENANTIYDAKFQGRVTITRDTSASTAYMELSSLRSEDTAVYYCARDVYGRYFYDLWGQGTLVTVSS
T12 sequence (VH, as listed by the source limits assumed, chain 1 of 2): as the sequence (VH, as listed by the source, chain 1 of 2) above, with V100A, L108V counted along it
T17 sequence (VH, as listed by the source limits assumed, chain 1 of 2): as the sequence (VH, as listed by the source, chain 1 of 2) above, with V100N, R103G, L108V counted along it
T17 sequence (VL, as listed by the source limits assumed, chain 2 of 2): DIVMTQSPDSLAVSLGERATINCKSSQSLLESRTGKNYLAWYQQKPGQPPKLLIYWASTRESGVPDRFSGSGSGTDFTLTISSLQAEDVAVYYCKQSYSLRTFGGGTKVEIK
T3 sequence (VH, as listed by the source limits assumed, chain 1 of 2): as the sequence (VH, as listed by the source, chain 1 of 2) above, with N55E, A56G, V100A, L108V counted along it
T8 sequence (VH, as listed by the source limits assumed, chain 1 of 2): as the sequence (VH, as listed by the source, chain 1 of 2) above, with N55E, A56G, V100A, L108V counted along it
T16 sequence (VH, as listed by the source limits assumed, chain 1 of 2): as the sequence (VH, as listed by the source, chain 1 of 2) above, with N55E, A56G, V100R, R103A, L108V counted along it
T6 sequence (VH, as listed by the source limits assumed, chain 1 of 2): as the sequence (VH, as listed by the source, chain 1 of 2) above, with A56G, A62P, V100G, L108V counted along it
T1 sequence (VH, as listed by the source limits assumed, chain 1 of 2): as the sequence (VH, as listed by the source, chain 1 of 2) above, with V100Q, L108V counted along it
T7 sequence (VH, as listed by the source, chain 1 of 2): as the sequence (VH, as listed by the source, chain 1 of 2) above
T18 sequence (VH, as listed by the source limits assumed, chain 1 of 2): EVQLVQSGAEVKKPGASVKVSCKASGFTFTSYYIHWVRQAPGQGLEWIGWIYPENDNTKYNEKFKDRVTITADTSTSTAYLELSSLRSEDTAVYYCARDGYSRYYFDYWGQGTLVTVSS
T18 sequence (VL, as listed by the source limits assumed, chain 2 of 2): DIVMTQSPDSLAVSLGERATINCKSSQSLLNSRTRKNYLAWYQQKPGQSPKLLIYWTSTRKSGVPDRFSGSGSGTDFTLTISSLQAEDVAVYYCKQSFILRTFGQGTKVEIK
T5 sequence (VH, as listed by the source limits assumed, chain 1 of 2): as the sequence (VH, as listed by the source, chain 1 of 2) above, with N55E, A56G, A97G, V100A, R103L, L108V counted along it
T9 sequence (VH, as listed by the source limits assumed, chain 1 of 2): as the sequence (VH, as listed by the source, chain 1 of 2) above, with N55E, A56G, A97G, V100A, R103L, L108V counted along it
T4 sequence (VH, as listed by the source limits assumed, chain 1 of 2): as the sequence (VH, as listed by the source, chain 1 of 2) above, with V100N, R103G, L108V counted along it
T15 sequence (VH, as listed by the source limits assumed, chain 1 of 2): as the sequence (VH, as listed by the source, chain 1 of 2) above, with N55E, A56G, V100Q, L108V counted along it
T15 sequence (VL, as listed by the source limits assumed, chain 2 of 2): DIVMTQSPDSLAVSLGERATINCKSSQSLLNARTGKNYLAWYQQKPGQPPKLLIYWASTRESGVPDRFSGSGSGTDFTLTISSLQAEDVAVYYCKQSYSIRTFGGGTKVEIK
T2 sequence (VH, as listed by the source limits assumed, chain 1 of 2): as the sequence (VH, as listed by the source, chain 1 of 2) above, with V100A, L108V counted along it

B1: ADI-34134 IgG (antibody, V domains shown)
VH: QVQLVQSGAEVKKPGSSVKVSCKASGGTFSSYAISWVRQAPGQGLEWMGGIIPIFGTANYAQKFQGRVTITADESTSTAYMELSSLRSEDTAVYYCARGAPNYYGSGGYDDGWFDPWGQGTLVTVSS
VL: EIVLTQSPGTLSLSPGERATLSCRASQSVSSDYLAWYQQKPGQAPRLLIYGASSRATGIPDRFSGSGSGTDFTLTISRLEPEDFAVYYCQQFGRVPTFGGGTKVEIK
- Kd (ADI-26913 Fab): 79.8 nM
- Kd (ADI-26906 Fab): 17.8 nM
- Kd (ADI-26921 Fab): 185 nM
- Kd (ADI-26954 Fab): 157 nM
- Kd (ADI-26928 Fab): 31 nM
- Kd (ADI-22523 Fab): 5.62 nM
- Kd (ADI-26916 Fab): 56.5 nM
- Kd (ADI-26921 IgG): 0.57 nM
- Kd (ADI-26928 IgG): 0.85 nM
- Kd (ADI-22523 IgG [1]): 0.37 nM
- Kd (ADI-26920 IgG [2]): 0.46 nM
- Kd (ADI-26906 IgG [3]): 0.43 nM
- Kd (ADI-26913 IgG [4]): 0.77 nM
- Kd (ADI-26916 IgG [5]): 1.04 nM
- Kd (ADI-26941 IgG): 1.13 nM
- Kd (ADI-26927 IgG): 0.45 nM

B2: ADI-34145 IgG (antibody, V domains shown)
VH: EVQLLESGGGLVQPGGSLRLSCAASGFTFSSYAMSWVRQAPGKGLEWVSTISGSGGSTYYADSVKGRFTISRDNSKNTLYLQMNSLRAEDTAVYYCARLGGRRGSGSSYYYYYGMDVWGQGTTVTVSS
VL: not shown
notes: anti-ID IgG
- Kd (ADI-26954 IgG [6]): 7.75 nM
- Kd (ADI-22523 IgG [7]): 2.72 nM
- Kd (ADI-26920 IgG [8]): 14.3 nM
- Kd (ADI-26906 IgG [9]): 8.39 nM
- Kd (ADI-26913 IgG [10]): 8.1 nM
- Kd (ADI-26916 IgG [11]): 48 nM
- Kd (ADI-26954 IgG [12]): 1.82 nM
- binding result (CTL-19613 IgG): no binding
- Kd (ADI-22523 IgG [13]): 2.6 nM
- Kd (ADI-26920 IgG [14]): 3.5 nM
- Kd (ADI-26906 IgG [15]): 8.39 nM
- Kd (ADI-26913 IgG [16]): 1.03 nM
- Kd (ADI-26916 IgG [17]): 7.75 nM
- binding result (CTL-19672 IgG): no binding
